The record followed here is patent US20020032322A1.

Where only a bound is given, the exact number is not on record here.

For the assay, the target named is TWIK-1 (human). The assay is described as follows: cell-based or functional assay.

In turn, “apamin (from UniProt P01500 28-45) (peptide)” yielded an inhibition of TWIK-1 K+ currents (voltage clamp, Xenopus oocytes) of less than 10 % inhibition.

dedrotoxine (peptide) returned an inhibition of TWIK-1 K+ currents (voltage clamp, Xenopus oocytes) of less than 10 % inhibition. With “charybdotoxine (from UniProt P13487 23-59) (peptide)”, the inhibition of TWIK-1 K+ currents (voltage clamp, Xenopus oocytes) is less than 10 % inhibition.
